Values quoted from earlier work, collected in patent US20080089848A1, “INTRATHECAL INJECTION OF MICROBUBBLES” (priority 2006, published 2008).

Key:
[1] = system: stroke; conditions: intracisternal injection into the cisterna magna, rats
[2] = infusion of tPA and microbubbles

Row | Molecule | functional recovery of neurons after stroke [1] | clot lysis [2]
1 | BMP-7: bone morphogenetic protein (protein, UniProt P18075 293-431, looked up) Bone morphogenetic protein 7: STGSKQRSQNRSKTPKNQEALRMANVAENSSSDQRQACKKHELYVSFRDLGWQDWIIAPEGYAAYYCEGECAFPLNSYMNATNHAIVQTLVHFINPETVPKPCCAPTQLNAISVLYFDDSSNVILKKYRNMVVRACGCH | promotes functional recovery | –
2 | tPA: thrombolytic agent (protein, UniProt P00750 36-562, looked up) Tissue-type plasminogen …: SYQVICRDEKTQMIYQQHQSWLRPVLRSNRVEYCWCNSGRAQCHSVPVKSCSEPRCFNGGTCQQALYFSDFVCQCPEGFAGKCCEIDTRATCYEDQGISYRGTWSTAESGAECTNWNSSALAQKPYSGRRPDAIRLGLGNHNYCRNPDRDSKPWCYVFKAGKYSSEFCSTPACSEGNSDCYFGNGSAYRGTHSLTESGASCLPWNSMILIGKVYTAQNPSAQALGLGKHNYCRNPDGDAKPWCHVLKNRRLTWEYCDVPSCSTCGLRQYSQPQFRIKGGLFADIASHPWQAAIFAKHRRSPGERFLCGGILISSCWILSAAHCFQERFPPHHLTVILGRTYRVVPGEEEQKFEVEKYIVHKEFDDDTYDNDIALLQLKSDSSRCAQESSVVRTVCLPPADLQLPDWTECELSGYGKHEALSPFYSERLKEAHVRLYPSSRCTSQHLLNRTVTDNMLCAGDTRSGGPQANLHDACQGDSGGPLVCLNDGRMTLVGIISWGLGCGQKDVPGVYTKVTNYLDWIRDNMRP | – | accelerate clot lysis
